Assay results taken from article PMC5303823, “DEK-targeting DNA aptamers as therapeutics for inflammatory arthritis”.

Target: T1, DEK (recombinant, baculovirus) (UniProt P35659 1-375)
T1 sequence: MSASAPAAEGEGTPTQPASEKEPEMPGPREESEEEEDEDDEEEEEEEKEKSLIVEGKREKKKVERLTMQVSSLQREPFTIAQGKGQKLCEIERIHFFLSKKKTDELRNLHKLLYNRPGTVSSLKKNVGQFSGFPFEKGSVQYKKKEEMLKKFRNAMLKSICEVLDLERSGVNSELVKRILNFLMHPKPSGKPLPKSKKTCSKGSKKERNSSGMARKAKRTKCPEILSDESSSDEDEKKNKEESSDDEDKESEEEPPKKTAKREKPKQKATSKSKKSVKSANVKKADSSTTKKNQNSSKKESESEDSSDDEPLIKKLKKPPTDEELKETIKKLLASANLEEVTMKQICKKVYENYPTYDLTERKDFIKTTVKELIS
Experiment: pull-down, biotinylated aptamer on magnetic beads, immunoblot; two DEK concentrations, overnight 4 C; Selection and dot blot: 20 mM Tris pH 7.6, 100 mM NaCl, 5 mM MgCl2 (selection at room temperature; dot blot with 100 ug/ml salmon sperm DNA); pull-down: overnight at 4 C, PBS washes
Settings: protein: recombinant; tags: His tag (SELEX resin); label: biotin (pull-down on magnetic beads)

GGGGTTAAATATTCCCACATTGCCTGCGCCAGTACAAATAG (ssDNA) [DTA-64]: binds.
